The data set deals with NS1A(1-73), NS1 protein N-terminal dsRNA-binding domain (Influenza A virus (A/Udorn/72)?, UniProt B4URE2 SEQ:1-73).
Sequence of NS1A(1-73), NS1 protein N-terminal dsRNA-binding domain (B4URE2 1-73): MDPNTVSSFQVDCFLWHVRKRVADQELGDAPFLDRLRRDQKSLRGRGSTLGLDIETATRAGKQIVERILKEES

B1: 16-bp dsRNA (RR) (dsRNA)
RNA 1: CCAUCCUCUACAGGCG
RNA 2: CGCCUGUAGAGGAUGG
For B1, the Kd was 748 nM.

The values are drawn from patent publication US20100081126, “PROCESS FOR DESIGNING INHIBITORS OF INFLUENZA VIRUS STRUCTURAL PROTEIN-1” (RUTGERS, THE STATE UNIVERSITY OF NEW JERSEY, published 2010).
